The text below walks through data of US10759836B2, “Cancer vaccine compositions and methods of use thereof” (UNIVERSITY OF WASHINGTON, priority 2014, dated 2020).

“Also recorded” adds a separate entry of the source.

Experiment [1] concerns colon tumor burden in AOM mice (Azoxymethane + FVB). The experiment in a line: AOM mouse model: colon tumor count after peptide vaccination. In kind it is in vivo. As to conditions: for effect on colon tumor burden (tumor count): AOM treated FVB mice, vs control group (CFA/IFA; PBS for IGF1R, PRL3, RCAS1); for peptide efficacy, Azoxymethane + FVB (Induced): summary table, Yes/No. How it is done: AOM mouse in-vivo experiments. At 6 weeks of age, FVB mice were immunized in CFA/IFA, PBS, and vaccine groups. Each group received subcutaneous injections (100 ul PBS, 50 ul CFA with 50 ul PBS, 50 ug per peptide with 50 ul CFA) once every 10-14 days for a total of three doses and a booster was given every 4-5 weeks after the third vaccine. See Table 7 for peptides included in vaccine compositions. CFA was replaced with IFA after the first vaccine. Seven days after the third vaccine, mice were injected with Azoxymethane (AOM) at 10 mg/kg, twice weekly for 6 weeks. At 26 weeks of age, all mice were sacrificed and tumors in the colon were counted.

Experiment [2] relates to colon tumor burden in APCmin mice. The experiment in a line: APCmin mouse model: colon tumor count after peptide vaccination. In kind it is in vivo. Particulars: for effect on colon tumor burden (tumor count): APCmin mice, vs CFA/IFA control, 50 ug per peptide s.c.; for peptide efficacy, APCmin Colon (Spontaneous): summary table, Yes/No. How it is done: (§1) Offspring from APCmin were genotyped by PCR for the presence of the Min mutation using primers as follows: Wild-Type: 5′-[…]-3′ (SEQ ID NO: 46), Common 5′-[…]-3′ (SEQ ID NO: 47), Mutant: 5′-[…]-3′ (SEQ ID NO: 48). Both male and female mice testing positive for the Min mutation were included in the study and randomized into groups.
(§2) At 4-6 weeks of age, mice were immunized in CFA/IFA, PBS, and vaccine groups. Each group received subcutaneous injections (100 ul PBS, 50 ul CFA with 50 ul PBS, 50 ug per peptide with 50 ul CFA) once every 7-10 days for a total of three doses and one booster was given 4-5 weeks after the third vaccine. See Table 5 for peptides included in vaccine compositions. CFA was replaced with IFA after the first vaccine. All mice were sacrificed at 14 to 17 weeks of age, the gastrointestinal tracts were collected and tumors counted.

In experiment [3] the test system is MC-38 cells (murine adenocarcinoma). The experiment in a line: MC-38 tumor implant model: tumor volume after peptide vaccination. In kind it is in vivo, C57Bl/6 mice. Particulars: for effect on tumor volume: MC-38 tumor implant in C57Bl/6 mice, vs CFA/IFA; for peptide efficacy, MC-38 + B6 (Tumor Implant): summary table, Yes/No. Here is the method:
MC-38 tumor implant in-vivo experiments. At 6 weeks of age, mice were immunized in CFA/IFA, PBS, and vaccine groups. Each group received subcutaneous injections (100 ul PBS, 50 ul CFA with 50 ul PBS, 50 ug per peptide with 50 ul CFA) once every 10-14 days for a total of three doses. See Table 9 for peptides included in vaccine compositions. CFA was replaced with IFA for the second and third vaccines. Two weeks after the final vaccine, we subcutaneously implanted 4×10^4 MC-38 cells (murine adenocarcinoma), and measured tumor growth with Vernier calipers 2-3 times per week. Tumor volume was calculated as length×width×height×π/6, which is the standard volume calculation of an ellipsoid. Mice were sacrificed when tumor size in control mice reached greater than 1000 mm^3.

Experiment [4] has as its system small bowel tumor burden in APCmin mice. The experiment in a line: APCmin mouse model: small bowel tumor count after peptide vaccination. In kind it is in vivo. As to conditions: for effect on small bowel tumor burden (tumor count): APCmin mice, vs CFA/IFA control, 50 ug per peptide s.c.; for peptide efficacy, APCmin Small Bowel (Spontaneous): summary table, Yes/No. How it is done:
as §1, §2

For experiment [5] the test system is unchanged. The experiment in a line: APCmin survival study: small bowel tumor count at sacrifice. In kind it is in vivo. As to conditions: boosters every 4-5 weeks, vs CFA/IFA. How it is done: At 4-6 weeks of age, mice were immunized with CFA/IFA, PBS, and vaccine groups. Each group received subcutaneous injections (100 ul PBS, 50 ul CFA with 50 ul PBS, 50 ug per peptide with 50 ul CFA) once every 7-10 days for a total of three doses and a booster vaccine was given every 4-5 weeks after the third vaccine. See Table 6 for peptides included in vaccine compositions. CFA was replaced with IFA after the first vaccine. […] At sacrifice, small intestines were collected and small bowel tumors counted.

B1: RCAS1: peptide vaccine of RCAS1 #13, #14, #21, #30, #31, 50 ug per peptide with CFA/IFA (peptide)
chain 1: EPDYFKDMTPTIRKTQKIVI
chain 2: DYFKDMTPTIRKTQKIVIKKR
chain 3: LFKFCTCLATVFSFLKRLIC
chain 4: GFSSRLAATQDLPFIHQSSELGD
chain 5: EEEDAAWQAEEVLRQQKLADR
modifications: with CFA/IFA adjuvant
notes: peptide vaccine of RCAS1 #13, #14, #21, #30, #31, 50 ug per peptide with CFA/IFA
As to B1, in experiment [1], the “effect on colon tumor burden (tumor count)” value (“effect on colon tumor burden” below) was “lack of RCAS1 vaccine efficacy; also recorded: do not significantly inhibit” and the “peptide efficacy, Azoxymethane + FVB (Induced)” value (shortened to “peptide efficacy … (Induced)”) is “No”. Moreover, in experiment [2], the “effect on colon tumor burden” value is “lack of RCAS1 vaccine efficacy; also recorded: does not significantly inhibit” and the “peptide efficacy, APCmin Colon (Spontaneous)” value (from here on “peptide efficacy, APCmin Colon”) is “No”. Besides, in experiment [3], the “effect on tumor volume” value is listed as “significantly inhibits” and the “peptide efficacy, MC-38 + B6 (Tumor Implant)” value (shortened to “peptide efficacy, MC-38 + B6”) was “Yes”. In addition, in experiment [4], the “effect on small bowel tumor burden (tumor count)” value is on record as “vaccine efficacy; also recorded: significantly inhibits” and the “peptide efficacy, APCmin Small Bowel (Spontaneous)” value is given as “Yes”.

B2: PRL3: peptide vaccine of PRL-3 #1, #2, #3, #4, #29, 50 ug per peptide with CFA/IFA (peptide)
chain 1: VSYKHMRFLITHNPTNATL
chain 2: FIEDLKKYGATTVVRVCEVTY
chain 3: PCVAGLGRAPVLVALALIES
chain 4: MKYEDAIQFIRQKRRGAIN
chain 5: VEDWLSLVKAKFCEA
modifications: with CFA/IFA adjuvant
notes: peptide vaccine of PRL-3 #1, #2, #3, #4, #29, 50 ug per peptide with CFA/IFA
Take B2: the “effect on small bowel tumor burden (tumor count)” value in experiment [5] is on record as “does not significantly inhibit”. For the same molecule, in experiment [1], the “effect on colon tumor burden” value is on record as “lack of PRL3 vaccine efficacy; also recorded: does not significantly inhibit” and the “peptide efficacy … (Induced)” value is given as “No”. Also, in experiment [2], the “effect on colon tumor burden” value was “lack of PRL3 vaccine efficacy; also recorded: does not significantly inhibit” and the “peptide efficacy, APCmin Colon” value is listed as “No”. Further, in experiment [3], the “effect on tumor volume” value is “significantly inhibits” and the “peptide efficacy, MC-38 + B6” value is on record as “Yes”. Moreover, in experiment [4], the “effect on small bowel tumor burden (tumor count)” value is “vaccine efficacy; also recorded: significantly inhibits” and the “peptide efficacy, APCmin Small Bowel (Spontaneous)” value is “Yes”.

B3: VCP: peptide vaccine of VCP #18, #19, #20, #23, 50 ug per peptide with CFA/IFA (peptide)
chain 1: IRMNRVVRNNLRVRLGDVISI
chain 2: LQLFRGDTVLLKGKKRR
chain 3: YFLEAYRPIRKGDIFLVRG
chain 4: VEFKVVETDPSPYCIVAPDT
modifications: with CFA/IFA adjuvant
notes: peptide vaccine of VCP #18, #19, #20, #23, 50 ug per peptide with CFA/IFA
For B3, in experiment [1], the “effect on colon tumor burden” value is reported as “lack of VCP vaccine efficacy; also recorded: does not significantly inhibit” and the “peptide efficacy … (Induced)” value is given as “No”. Further, in experiment [2], the “effect on colon tumor burden” value was “vaccine efficacy; also recorded: significantly inhibits” and the “peptide efficacy, APCmin Colon” value is “Yes”. Also, in experiment [3], the “effect on tumor volume” value is given as “does not significantly inhibit” and the “peptide efficacy, MC-38 + B6” value is recorded as “No”. For the same molecule, in experiment [4], the “effect on small bowel tumor burden (tumor count)” value was “vaccine efficacy; also recorded: significantly inhibits” and the “peptide efficacy, APCmin Small Bowel (Spontaneous)” value is “Yes”.
